# From publication PMC10511320, “R-loop-dependent promoter-proximal termination ensures genome stability”
# B1: Blunt-end dsDNA (30 bp) random (dsDNA)
# DNA 1: GAGCTACCAGCTACCCCGTATGTCAGAGAG
# DNA 2: CTCTCTGACATACGGGGTAGCTGGTAGCTC
# B2: oligo (dT)48 (ssDNA)
# DNA: TTTTTTTTTTTTTTTTTTTTTTTTTTTTTTTTTTTTTTTTTTTTTTTT
# What was measured:
# SSB1 [1] = target: T1, SSB1 (human, UniProt Q9BQ15 1-211); test: EMSA; EMSA: 100 nM Cy3 probe, 20 mM Tris-HCl pH 7.5, 50 mM NaCl, 5 mM MgCl2, 0.2 mM EDTA, 1 mM DTT, on ice 30 min; 6% native PAGE, 0.5x TBE, cold room; settings: protein: recombinant; blunt
# T1 sequence (Q9BQ15 whole entry): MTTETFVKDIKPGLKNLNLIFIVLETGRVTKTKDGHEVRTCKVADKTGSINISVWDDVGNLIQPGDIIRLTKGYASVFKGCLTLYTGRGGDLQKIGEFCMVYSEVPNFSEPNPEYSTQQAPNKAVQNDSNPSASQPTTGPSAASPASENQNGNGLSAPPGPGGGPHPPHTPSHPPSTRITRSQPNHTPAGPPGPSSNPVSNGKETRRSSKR
# SSB1 [2] = target: T1, SSB1; test: EMSA; ED Fig. 2a ssDNA taken as (dT)48, the only listed ssDNA oligo; EMSA: 100 nM Cy3 probe, 20 mM Tris-HCl pH 7.5, 50 mM NaCl, 5 mM MgCl2, 0.2 mM EDTA, 1 mM DTT, on ice 30 min; 6% native PAGE, 0.5x TBE, cold room; settings: protein: recombinant; label: 3' Cy3
Binder,binding result (SSB1 [1]),binding result (SSB1 [2])
B1,no binding,–
B2,–,binds
